Laboratory results as given in patent CN103012589A (SHANGHAI SERUM BIO TECHNOLOGY CO LTD; INST BIOENGINEERING …, dated 2013).
Substitutions are numbered along the chain they refer to.

Target: T1, 重组人VEGF165 (human, UniProt P15692-4 27-191)
T1 construct: also called VEGF双体; 人血管内皮细胞生长因子
T1 sequence: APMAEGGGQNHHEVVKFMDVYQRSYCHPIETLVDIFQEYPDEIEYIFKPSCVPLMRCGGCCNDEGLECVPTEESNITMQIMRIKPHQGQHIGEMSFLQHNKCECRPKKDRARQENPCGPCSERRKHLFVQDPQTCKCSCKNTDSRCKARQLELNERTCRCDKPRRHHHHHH
Assay: Biacore SPR, VEGF coupled on CM5 chip, whole antibody as analyte, 1:1 Langmuir fit

B1: VA6L-K90D_D92V (antibody, V domains shown)
VH: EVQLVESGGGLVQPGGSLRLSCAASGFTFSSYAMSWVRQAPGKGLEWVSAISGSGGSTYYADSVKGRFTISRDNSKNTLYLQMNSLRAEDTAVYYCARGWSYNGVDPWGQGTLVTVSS
VL: SYELTQPPSVSVAPGQTARITCSGDALGDKYASWYQQKPGQAPVLVIYEDSKRPSGIPERFSGSNSGNTATLTISGTQAEDEADYYCQVDSVNYGYVFGGGTKLTVLG
notes: also called VA6-3
  Kd: 5.27 nM
  koff: 0.00149 s⁻¹
  kon: 283000 M⁻¹ s⁻¹

B2: VA6-57 (antibody, IgG1, V domains shown)
VH: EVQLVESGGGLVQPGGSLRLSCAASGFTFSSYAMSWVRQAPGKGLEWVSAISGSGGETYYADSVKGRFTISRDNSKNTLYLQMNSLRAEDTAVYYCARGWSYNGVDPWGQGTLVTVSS
VL: B1 VL
notes: Whole antibody (IgG1, lambda); built further on VA6-3
  Kd: 1.8 nM
  koff: 0.00096 s⁻¹
  kon: 550000 M⁻¹ s⁻¹

B3: VA6全抗体 (antibody, V domains shown)
VH: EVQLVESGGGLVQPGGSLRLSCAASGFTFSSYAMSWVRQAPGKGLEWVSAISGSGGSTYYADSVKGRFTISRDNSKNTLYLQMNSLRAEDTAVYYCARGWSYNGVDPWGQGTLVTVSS
VL: B1 VL with D90K, V92D
notes: Whole antibody from vectors pABL (lambda) and pABG1 (human IgG1), HEK293T transient expression
  Kd: 12.7 nM
  koff: 0.000445 s⁻¹
  kon: 35000 M⁻¹ s⁻¹
